Four molecules from patent US20260207757A1 (IGF ONCOLOGY, published 2026) can be followed below.

Experiment [1] concerns the target dihydrofolate reductase. The experiment is described as follows: cell-based or functional assay.
Experiment [2] has as its target T1, type 1 IGF receptor (IGF-1R) (human, UniProt P08069 31-1367).
T1 construct: whole, on cells; also called IGF-1 receptor; CD221
The experiment can be described thus: competition binding to IGF receptors against radioactive wild type IGF. As for the experimental part: 200 ul of each of these was mixed rapidly with 1.8 ml of refold buffer. Refold buffer was 1.4 M urea, 100 mM glycine, 0.5 M NaCl, 19% ethanol, 0.5 mM GSSG, 4 mM GSH, pH 9.5.

T1 sequence (P08069 31-1367): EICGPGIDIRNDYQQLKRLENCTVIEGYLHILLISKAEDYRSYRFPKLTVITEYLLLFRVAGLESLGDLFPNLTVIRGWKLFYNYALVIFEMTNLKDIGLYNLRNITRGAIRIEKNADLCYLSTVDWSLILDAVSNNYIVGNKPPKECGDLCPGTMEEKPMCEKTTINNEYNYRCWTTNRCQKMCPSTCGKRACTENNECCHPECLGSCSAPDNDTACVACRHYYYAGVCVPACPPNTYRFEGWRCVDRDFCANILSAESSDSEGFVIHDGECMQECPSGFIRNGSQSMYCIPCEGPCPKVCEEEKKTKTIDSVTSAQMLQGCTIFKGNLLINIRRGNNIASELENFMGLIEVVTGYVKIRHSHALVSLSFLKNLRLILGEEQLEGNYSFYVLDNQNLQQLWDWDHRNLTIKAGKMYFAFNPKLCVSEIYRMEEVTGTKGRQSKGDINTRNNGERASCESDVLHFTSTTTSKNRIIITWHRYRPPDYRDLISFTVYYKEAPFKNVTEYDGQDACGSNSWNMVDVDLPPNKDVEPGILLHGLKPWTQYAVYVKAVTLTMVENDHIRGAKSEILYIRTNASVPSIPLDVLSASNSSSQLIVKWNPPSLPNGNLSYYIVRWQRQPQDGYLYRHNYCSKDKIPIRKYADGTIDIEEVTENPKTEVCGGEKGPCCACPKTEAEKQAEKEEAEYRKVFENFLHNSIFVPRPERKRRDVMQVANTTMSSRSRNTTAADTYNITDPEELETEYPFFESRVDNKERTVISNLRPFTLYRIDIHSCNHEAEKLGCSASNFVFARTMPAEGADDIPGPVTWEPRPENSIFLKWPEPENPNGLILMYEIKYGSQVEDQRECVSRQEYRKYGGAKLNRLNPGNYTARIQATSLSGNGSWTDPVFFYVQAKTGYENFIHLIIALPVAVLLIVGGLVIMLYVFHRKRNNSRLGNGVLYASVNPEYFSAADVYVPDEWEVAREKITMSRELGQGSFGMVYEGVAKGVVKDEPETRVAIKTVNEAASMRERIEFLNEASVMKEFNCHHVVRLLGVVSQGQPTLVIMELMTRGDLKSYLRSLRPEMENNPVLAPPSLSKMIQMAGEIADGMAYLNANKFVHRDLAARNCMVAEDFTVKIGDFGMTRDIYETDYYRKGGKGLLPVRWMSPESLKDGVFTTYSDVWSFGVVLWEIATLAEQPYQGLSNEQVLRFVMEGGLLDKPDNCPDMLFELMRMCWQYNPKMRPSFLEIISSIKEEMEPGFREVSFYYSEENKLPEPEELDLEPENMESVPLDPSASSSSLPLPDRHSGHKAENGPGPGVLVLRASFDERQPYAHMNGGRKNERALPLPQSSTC

B1: LR3IGF-MTX (ligand)
chain: MFPAMPLSSLFVNGPRTLCGALVDALQFVCGDRGFYFNKPTGYGSSSRRAPQTGIVDECCFRSCDLRRLEMYCAPLKPAKSEA
modifications: methotrexate on amino groups (3 lysine side chains and the N-terminal amino group available), MTX:protein ratio of 2.8
On to B1, for which the “IC50 (inhibition of dihydrofolate reductase activity)” value in experiment [1] was 99 nEq/L.

B2: 785IGF (ligand)
chain: MVKQIESKTAFQEALDAAGDKLVVVDFSATWCGHCKMIKPFFHSLSEKYSNVIFLEVDVDDSQDVASESEVKSMPTFQFFKKGQKVGEFSGANKEKLEATINELVGSKSGHHHHHHSAKGFVNQHLCGSHLVEALYLVCGDRGFYFNKPTGYGSSSRRAPQTGIVDECCFRSCDLRRLEMYCAPLKPAKSA
notes: also called mutTrx-IGF132
Regarding B2, in experiment [2], the dissociation constant Kd is around 40 nM.

B3: 764IGF (ligand)
chain: MVKGKHHHHHHNGKGKSKFVNQHLCGSHLVEALYLVCGDRGFYFNKPTGYGSSSRRAPQTGIVDECCFRSCDLRRLEMYCAPLKPAKSA
notes: also called His6-K5-IGF132
Consider B3, for which, in experiment [2], the Kd was around 100 nM.

B4: 403IGF (ligand)
chain: MTSGHHHHHHSAGVNGFVNQHLCGSHLVEALYLVCGDRGFYFNKPTGYGSSSRRAPQTGIVDECCFRSCDLRRLEMYCAPLKPAKSA
notes: T0001 describes it as His6-IGF; also called His6-IGF
For the molecule B4, in experiment [2], the Kd is around 2 nM.

As usually defined, the Kd is the constant that tells how readily two partners part at equilibrium.
